# Measured values taken from US12365732 (23ANDME, dated 2025).
# T1: hCD155 (Table 28) (human, UniProt P15151 21-343, limits assumed)
# T1 sequence (looked up): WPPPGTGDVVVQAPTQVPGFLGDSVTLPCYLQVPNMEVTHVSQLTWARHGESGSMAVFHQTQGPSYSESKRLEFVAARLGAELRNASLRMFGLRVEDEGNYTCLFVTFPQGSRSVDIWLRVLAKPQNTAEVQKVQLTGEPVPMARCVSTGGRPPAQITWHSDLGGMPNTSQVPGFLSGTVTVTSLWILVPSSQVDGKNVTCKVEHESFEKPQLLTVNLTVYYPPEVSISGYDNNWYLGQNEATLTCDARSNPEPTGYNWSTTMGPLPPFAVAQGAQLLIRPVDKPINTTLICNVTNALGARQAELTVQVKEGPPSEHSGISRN
# Molecular target: T1, hCD155 (Table 28)
# Assay: SPR 25C, biotin-CD226-His captured, steady state fitting
# Protocol: To determine the binding affinity to hu-CD226 and cy-CD226 of mAb1.v7.NGS8, h10G1, hCD155 and anti-hCD226 antibody DX11 (Abcam, cat #Ab33397), SPR measurement with a BIACORE™ 8K instrument was performed. Briefly, a 1:4 dilution of Biotin CAPture Reagent (GE Healthcare) into HBS-EP buffer (0.01 M HEPES pH 7.4, 0.15 M NaCl, 3 mM EDTA, 0.005% Surfactant P20) was applied to the chip at 2 µL/min flow rate. For the kinetics measurements, 5 µg/ml of biotinylated hu-CD226 His tag (Sino biological, cat #10565-H08H) and cy-CD226 His tag (Arco biosystems, cat #DN1-052H9) was captured at 10 µL/min to achieve ~50 response units in the second flow cell (FC2). FC1 was kept as a reference. Next, 3-fold serial dilutions of IgG in HBS-P buffer (0.01 M HEPES pH 7.4, 0.15 M NaCl, 0.005% surfactant P20) from low (1.3 nM) to high (1000 nM) concentration were injected (flow rate: 30 µL/min) at 25° C. The sensorgram was recorded and subject to reference and buffer subtraction before evaluating by BIACORE® 8K Evaluation Software (version 1.1.1.7442). Association rates ($kon$) and dissociation rates ($koff$) were calculated using a simple one-to-one Langmuir binding model. The equilibrium dissociation constant (K_D) value was calculated as the ratio of $koff/kon$. […]
binder,measurement,value
"cy-CD226 His tag (receptor, cynomolgus monkey, biotinylated) EEVLWHTSVPFAENMSLECVYPSVGILTQVEWFKIGTEKDSIAIFSPTHGMVIRKPYAERVYFLNSTMASNNMTLFFRNASEDDVGYYSCSLYTYPQGTWQKVIQVVQSDGFEAAVPPNSHIVSEPGKNITLTCQPQMTWPVQEVRWEKVQPHQIDLLTYCDLVHGRNFTSKFPRQIVSNCSHGSWSFIVVPDVTASDSGLYRCHLQASAGENETFVMRLTVAEGQTDN",Kd,67.5 nM
